Test: soluble on expression in E. coli; label from the status in PepcDB or PDB records
For “MSQPYSAVADATGKAYVDIRVCDLLVQQGNMPKGLDSDFQIDGLYVVLRCQEDVRRTSCLWSTAPGACATELQSAAMQLGAAAGAYEAQSDDALVWNEMFRFVVPPALPLSTPAISPRAPHSPPSADGGDPQGGFCAPYTPPLPLSGSASGVAGGLHDIPGGIALPMSTAASGGMRAAGSSGFPVPYTPQPSSLAISTPPLHSAAAQKQPSGGGNGARATEAVASHASLFYPTIELELWRSAPLSENLLGRYKYHVPMELMQGGYALSNLDAVVERVVLLRTKDAPSIMGNLYGWSGHRLSLRLRVQAVGLAPLMAAWSPQQGSEATMTAASTIGSAAYPAPFPTGMLGNTVTGAPPYVAAGVYGAPLGTLNPVLVNLLAPLGVPTGGSGAGQLAPTVMMSMPGGMGGDNLHKPGQPPFFSMFPPASEAPADVGGKMFHPHLPGVLPATPQSSGQGILGDGDLTWQSSTTQPTVYPPYRLPR”, the “soluble on expression in E. coli” value was “not soluble”. With “MGSDKIHHHHHHMLLTLSICNFRSFGTEATLDLQRRGFRTQHPRKDETWQENTWRRAAIFGANAAGKSNVLRALGQLKLAITHSLTNEHWVRELRDPHSLCTDEPTSFEVEYVFDDVRYRWGLTLNHSGVVEEFLEANLSSRWRRIFERTGNSLIFGSNTGISHAAKENIEQFMRPWALVFSAWNTVKTPGPFAGALQWWQTLLPVIMSNEADQHNRHQWLVQLAQKDPTWLSVLQNVVAVADVGINKIGIEEQAPDLVKKIELTIQPDGQAEITDQFDSDEITEYLRYLMFEHSDGIHTFSLPETQESQGTKAWMDLAIPALFALSVGGVLSIDEIDGSLHPLLVRELVSYFDNSELNPLGAQLLFSTHDLTLLGKYPAESLHRGEVWLVEKERSYSELIALDEFPIRDAHNIEKRYLQGTYGAVPISNTTELLHTLEVLREKYTKMKQQ” the “soluble on expression in E. coli” value was “not soluble”. With “MAHHHHHHMQLMRAVTLKGFGDTDMLQISRIPKAVITRGRDILIKVSAAGVNRADAAQRKGHYLPPKGSSEVLGLEVSGIVEEVGVDVKDFKEGDKVMALLPGGGYAEYAVAHEGSVMHIPQGYSFIEAAAIPEAFLTAWQALKYHGDCCKGQKVLIHAGASGVGTAAAQLVEKYFQATALTTSSESKVEVCKNFASINFTRTPDETGMCFSPKVKRLLGEGAINLVLDSVFGGSYISEDAAVLAKDGRIVVLAFMGGATVHLNCLPLLRQRAHVMFSKLRCQSDDYKQNLVDTFEEAVIPYMNERLIVPVANKTYPLEEVAQAHMRLDDSKAWGKIVLTFNSHLSATSTNPPPTLTA” the “soluble on expression in E. coli” value was “not soluble”. With “SSNKEGSGGFRKRKHDNFPHNQRREGKDVNSSSPVMLAFKSFQQELDARHDKYERLVKLSRDITVESKRTIFLLHRITSAPDMEDILTESEIKLDGVRQKIFQVAQELSGEDMHQFHRAITTGLQEYVEAVSFQHFIKTRSLISMDEINKQLIFTTEDNGKENKTPSSDAQDKQFGTWRLRVTPVDYLLGVADLTGELMRMCINSVGNGDIDTPFEVSQFLRQVYDGFSFIGNTGPYEVSKKLYTLKQSLAKVENACYALKVRGSEIPKHMLADVFSVKTEMIDQEEGIS” the “soluble on expression in E. coli” value was “soluble”. With “MSLRDSRYYCRLFSPAAVRGGIRRISAIYLNPSAFMSSLPITDRKIRFGLVGCGRISKNHIGAIAQHGDRAELVEICDTNPEALQAAEAATGARPFSSLSDMLAQGNADALVLATPSGLHPWQAIEVAQAGRHVVSEKPMATRWEDGKRMVKACDEAGVRLFVVKQNRRNATLQLVKKAIEQGRFGRIYMVTVNVFWTRPQEYYDAARWRGKWEWDGGAFMNQASHYVDLLDWLVGPVESVYAYTATLARRIEAEDTGVAALRWRHGAMGSINVTMLTYPQNLEGSITILGEKGTVRVGGVAVNRIDEWKFAEPHPDDDKIREANYETTSVYGFGHPLYYDNVINCLRGDCEPETDGREGLQSLALLTAIYRSARDGVRIPLPLDEGHHHHHH” the “soluble on expression in E. coli” value was “soluble”. With “MTNSEPRRMTCDSEVVWKKLQDGLDVAYRRENMAPKDYMTLYTSVYDYCTSITLSTSRRDGEDGRAESSTPARTAGADFVGHEMYQRVEEYVKAYVIAVCEKGAELSGEDLLKYYTTEWENFRISSKVMDGIFAYLNRHWIRRELDEGHENIYMVYTLALVVWKRNLFNDLKDKVIDAMLELIRSERTGSMINSRYISGVVECLVELGVDDSETDAKKDAETKKLAVYKEFFEVKFLEATRGFYTQEAANFLSNGGNVTDYMIKVETRLNQEDDRCQLYLNSSTKTPLATCCESVLISNQLDFLQRHFGGLLVDKRDDDLSRMFKLCDRVPNGLDELRKSLENHIAKEGHQALERVAMEAATDAKLYVKTLLEVHERYQSLVNRSFKNEPGFMQSLDKAATSFINNNAVTKRAPPQAQLTKSAELLARYCDQLLRKSSKMPDEAELEELQTKIMVVFKYIDDKDVFSKFYTKMFSKRLISELSASDEAEANFITKLKSMCGYEYTARLSKMVNDTQVSKDLTADFKEKKADMLGQKSVEFNVLVLSSGSWPTFPTTPITLPQQLSKTIEIFGQFYNEKFNGRRLTWVYSQSRGEITSTAFPKKYVFTATTAQMCTMLLFNEQDSYTVEQIAAATKMDEKSAPAIVGSLIKNLVLKADTELQKEDEVPMTATVSLNKAYMNKKVRVDLSKFTMKQDAVRDTENVQKNVEEDRKSVISACIVRIMKTRKRVQHQQLMTEVITQLSGRFKPKVEMIKRCIGSLIEKEYMLRTEGQKDLYEYLA” the “soluble on expression in E. coli” value was “not soluble”. With “MGSDKIHHHHHHMSDCQAKPETNYLSTSSGKYLTAFQRKLLLQNLQKSLVESYRQRIEIMLLADEGKTQRSICQTLGCCAATARHWTHIARSGMAHQWQDCPIGRPKAVNDQYLERLKELVNSSPRAHGYAFRRWTANWLGKHLAKEFGIEVSDRHIKRLLKQMGLSTLPKPSNVEQNSTEQVQGSKILICDLQSAGIPDDSEFLPINFAKLGKHLDIHGAKYICSVAYSATVQQYSGSFSFYRGISTLSSTS” the “soluble on expression in E. coli” value was “not soluble”. For “MHGKLIGVGVGPGDSELLTLRAVNVLRSVPVICAPRSSSERESIALSIVEDILTERRDGCRILDPVFPMTDDRDELESHWDSAARMVAAELEDGRDVAFITLGDPSIYSTFSYLQQRIEDMGFKTEMVPGVTSFTACAATAGRTLVEGDEILLVVPRVDDRFERVLRDVDACVIMKTSRHGRRAMEVVESDPRGKDVVSVANCSMDDEVVERGFASGGGYLATTLVRFREQS”, the “soluble on expression in E. coli” value was “soluble”. For “MAHHHHHHMSQLKIKRGNFLFTSESVNEGHPDKICDQISDAILDSCLREDPYSKVACEVCAKKNYIFIFGEITTKAKVNYDKVTRDVLKHIGYDDESKGLDYKTAEIKVSIDEQSPDIAQCVHENRSPELIGAGDQGIMFGYATDETENYMPLTHHYATLLGKRLTEVRKLGILPYLGPDGKTQITIEYKNKGSCGGHLEPLRVHTVLISTQHAEDIKYEQLKTDLMENVIKYVIPEKLLDNETLYYLNPSGKFVLGGPAADAGLTGRKIICDTYGGWGAHGGGAFSGKDASKVDRSAAYYLRFIAKSLVANKFCRRVLVQASYSIGIANPISLNVNSYGTVSTGYTDYDLEQIILRNFDLRPGFIIQELKLTEPVFSKTSAYGHFGREGDTFTWEKIKDLSHEKNALKN”, the “soluble on expression in E. coli” value was “soluble”. In the case of “MRGSHHHHHHTDPHASSVPLEWPLSSQSGSYELRIEVQPKPHHRAHYETEGSRGAVKAPTGGHPVVQLHGYMENKPLGLQIFIGTADERILKPHAFYQVHRITGKTVTTTSYEKIVGNTKVLEIPLEPKNNMRATIDCAGILKLRNADIELRKGETDIGRKNTRVRLVFRVHIPESSGRIVSLQTASNPIECSQRSAHELPMVERQDTDSCLVYGGQQMILTGQNFTSESKVVFTEKTTDGQQIWEMEATVDKDKSQPNMLFVEIPEYRNKHIRTPVKVNFYVINGKRKRSQPQHFTYHPV”, the “soluble on expression in E. coli” value is reported as “soluble”. For “MSLDRNEMLEFAAKLHSHLSPGVALGIKMAQIAYEKLGVNFRGKGLVGIAETAMCLPDALQVVAGTTPGNRNLIVKDYGKLALAIVRFDTREGYRVTIKKEAAKKSELIKKFLYRLGKLNKEEEKRLAEEFLNLEPEYFEVREIRLTIPVGGTKEPIVECEKCGELQPSDYVAEVDGRMVCFMCAGKGYFEEGGSHHHHHH”, the “soluble on expression in E. coli” value was “soluble”. In the case of “MGSDKIHHHHHHMKWRGYLTPVTENYLHAYGVGYISYVLARKFHVDSVKAFVTGTLHDLGGAVPADERVTVAESIGISLNDEEREVPLLVHAKLGKYFAQTLFDITDEDMLNAILFHTTCIDRASDLVKIVFLADKIRWDRNGTPPYLDGLLAALEISLDDGCSYFLKWLWNSDLYIVHPYLSRSYGAYVRQQQYNPISLQDFSVLQGNLNENLVKKYYLHDIYQEFHRTFYHAHLASVLASKHSVNTEEAYVTSALVNMTNTIKDDELETIASVLNLNVQVPIRPQLTSILARDEYGITSLEMLKTLKSFPQIPSNHNSLLWVVVMSWICQKSIKCEVEDE”, the “soluble on expression in E. coli” value is reported as “not soluble”. In the case of “MGETKLFFGPNHPGMHGNFSVHMYVEGDIVKKARPVPGFLHRGFEKLMERRYWYSNISLIPRICVPEPDINEICYAMAIEKIAKVEVPERAQWIRMIVLELARIANHIWTVGGIGGPLGLYTASHWGVADRDRILDIFEALSGARVYHMYIIPGGVRKNMTPKIEEMIWKTLDYIESRLPDYENLIFKNRIVHSRLRGRLILTREQAVEMGVTGVGLRATGVEYDIRKVDPYLFYDRVEFEVPTATDGDAFSRVYLKFKEIPQSIKIIRQALEKMPQADRVNVPIGRGNGLRRIVPKGMAYAHVESTRGEYGFFVVSDGKNKPYRVAVRGASYPQGLYGIEKYLPGTRIEDVPIWLATMDVCAPEIDR”, the “soluble on expression in E. coli” value is reported as “soluble”. With “GPGSMNVCSNTTKDPLTLMAMWGSMKGYNPEQGFSFEGPEKRLEVILRSTLETHVDGLRSLDDSVWSGVVGSLNAQIVSRESNEYINSYVLTESSLFVMKNRIILITCGTTTLLNSIPNILEAISAVRGELEWVSFMHKNYSFPWMQKGPHTSLADEFATLKQHFPTGKPYIFGPVDSDHYFLFCYDDIIRPCSSEDDTQLSMTMYGLDKEQTKYWFRDRFISTSAETAAIRAATHLDRVVDGTWTLHDLQFEPCGYSINAIRDEEYQTMHITPEDHCSFASYETNSRATNYSDRMKKVLGVFRPQRFTVIVFLDPESPVGKAYNEGKGIGVEPEYYPEYSLLHRTTNEFAPGYVAMKINYVRTAAVEETDAAVGGAEPGAKSGPD” the “soluble on expression in E. coli” value was “not soluble”. With “MSLGLKIEEARVIVCCPGRNFVTLKIITNEGIYGLGDATLNGRELSVVSYLEDHVIPCLIGRDPHQIEDIWQFLYRGAYWRRGPITMSAIAAVDTALWDIKAKAAGLPLYQMLGGKSRTGVMVYGHANGRDIEETVEEVGRYIEIGYQAVRAQCGIPGLPSTYGVSNDKMFYEPADADLPSENIWSTSRYLDHVPKLFEKLRQVHGWDVHLLHDVHHRLTPIEAARLGQSLEPMRLFWLEDIVPAENQEGFRIIRNHTTTPLAVGEVFNTIWDCKNLIEEQLFDYIRSTVVHAGGITHLRRIADLAGLYHVKTGCHGATDLSPVCMGAALNFDLWVPNFGIQEYMRHAEITNEVFPHHYNFSNGFLHPGESPGHGVDLDEKLAAKYPYQRAYLPVNRLEDGTMWNWEGHHHHHH” the “soluble on expression in E. coli” value was “not soluble”. In the case of “MGSDKIHHHHHHMTQLELLLERIIDRVNVNLRHQKFDVGDYVRRQTPHLHYSKFYAFYGLSADDPVHFHFKNSSLAGSYLLGRVNVLHSALYKSDIRGDELKRKGQHFVCDGKMIPLHDDEVITIKDSFLNKTLVHSNSHDPESPEEFTIRNTVAMPYANIHGSLTEGSFIGSFATVDLSTIHNSVVRYFSYVQTGELVGKCVEPGQIWIKSGDELEFHYSFDKAILDKYISQEAGSCPTGVLMEFVEVRQEDFEEVFASGHMASGAGSASGASVSGYAVIKGDTVIGENVLVSQRAYLDNAWMGKGSNAQENCYIINSRLERNCVTAHGGKIINAHLGDMIFTGFNSFLQGSESSPLKIGDGCVVMPHTIIDLEEPLEIPAGHLVWGYIRNKADLAAHSISFEEFAKVDGEVTMGRMTFRGKGGPFLDSFKKRIKRILSENGAFFDGSEGTGHAQKGKNFTFNIIQPYQDGDPRGMYPTILIQPNNGS”, the “soluble on expression in E. coli” value is reported as “not soluble”.

Source: the DeepSol protein solubility set
